Experiment [1] addresses Cub fusion of mature GENOMES UNCOUPLED 4 (GUN4) (Arabidopsis thaliana) (UniProt Q9LX31).
Experiment [2] shares this target. This is another data set of the same source.

Chain of UniProt Q9LX31 (Q9LX31 70-265): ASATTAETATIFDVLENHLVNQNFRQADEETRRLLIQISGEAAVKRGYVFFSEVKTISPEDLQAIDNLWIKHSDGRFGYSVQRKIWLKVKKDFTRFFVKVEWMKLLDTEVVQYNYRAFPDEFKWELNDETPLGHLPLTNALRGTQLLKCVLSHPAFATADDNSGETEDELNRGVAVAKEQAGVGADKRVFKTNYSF

In experiment [1], “NubG-BCM1 (mature BALANCE of CHLOROPHYLL METABOLISM 1) (natural protein)” registered an in vitro MgCh activity in 0.15 mM β-DM: 1 μM purified His-BCM1 against assays without BCM1 or with 1 μM GST of 3 fold; an in vitro MgCh activity with His-GUN4 and the three MgCh subunits: yeast membranes holding His-BCM1 against control membranes without BCM1 of 12%. The in vitro MgCh activity (MgP formed, HPLC) of recombinant MgCh subunits with His-GUN4: thylakoids from BCM1-OX3/gun4-1 against thylakoids from bcm1-3 gun4-1 seedlings in experiment [2] is 12%.

(Values after publication PMC7083845.)
